These results are taken from the supplement of paper PMC10567573.

This data set can be described thus: protein stability index of a GFP-peptide fusion (GPS, HEK-293T) (PSI 1-6); higher = more stable. The note with it: c terminus: a fixed tail appended.

± gives the standard deviation.
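Further: 24-mer peptide tiles fused after GFP, lentivirally expressed, FACS-sorted into six equal bins by GFP/DsRed ratio, decoded by Illumina sequencing, PSI is the read-weighted mean bin number.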

With NQRMKSKRWQKNNWPKNSNGVTQK [NANOGP8], the protein stability index was determined as 3.89 ± 0.44 (treatment: DMSO) and 4.2 ± 0.42 (treatment: MLN4924 1 uM, 8 h).

As to NQTAELRELLEFTHMYLQSDDEME [P3H4], the protein stability index reads like this: (treatment: DMSO) 4.83 ± 0.19; (treatment: MLN4924 1 uM, 8 h) 4.7 ± 0.18.

For the sequence NQTALHLAAAHGHSEVVEELVSAD [RIPK4], the protein stability index runs as follows: (treatment: DMSO) 5.46 ± 0.082; (treatment: MLN4924 1 uM, 8 h) 5.36 ± 0.11.

For the sequence NRDEVLDNLLAFVCDIRPEIHENY [ATP6V1G1], the protein stability index runs as follows: (treatment: DMSO) 2.49 ± 0.51; (treatment: MLN4924 1 uM, 8 h) 2.71 ± 0.37.

Consider NRQCLCSAESMVEYGTCMCLVKGI [SPRY1], for which the protein stability index runs as follows: (treatment: DMSO) 3.82 ± 0.28; (treatment: MLN4924 1 uM, 8 h) 3.83 ± 0.26.

With NRSLAEACSEGDVNAVRKLLIEGR [ANKRD17], the protein stability index runs as follows: (treatment: DMSO) 4.01 ± 0.26; (treatment: MLN4924 1 uM, 8 h) 4.12 ± 0.27.

In turn, NSMPVDNRNHNEGMVTRCIIEVLS [CHGB] had a protein stability index (treatment: DMSO) of 2.77 ± 0.14 and a protein stability index (treatment: MLN4924 1 uM, 8 h) of 2.59 ± 0.3.

As to NSTGGDCFYRGYTSGVAAVQDWYH [SCNN1D], the protein stability index by setting is: (treatment: DMSO) 2.36 ± 0.16; (treatment: MLN4924 1 uM, 8 h) 2.43 ± 0.5.

Regarding NVPNVCRMYCSDLLNPNLKDTVIC [SPACA3], the protein stability index amounted to 2.15 ± 0.3 (treatment: DMSO) and 2.31 ± 0.28 (treatment: MLN4924 1 uM, 8 h).

Consider NVPRICGVCGDRATGFHFNAMTCE [VDR], for which the protein stability index turned out to be 2.83 ± 0.39 (treatment: DMSO) and 2.73 ± 0.2 (treatment: MLN4924 1 uM, 8 h).

For NYEKLSRGLRYYYDKNIIHKTAGK [ETS1], the protein stability index came out at 2.69 ± 0.15 (treatment: DMSO) and 2.89 ± 0.43 (treatment: MLN4924 1 uM, 8 h).

Turning to NYGKILVEKNEHCIENNIDLQVNR [R3HDM1], the protein stability index turned out to be 3.56 ± 0.33 (treatment: DMSO) and 3.75 ± 0.19 (treatment: MLN4924 1 uM, 8 h).

NYMKILLKVGGILVMPIEDQLTQI [PCMTD1]: the protein stability index came to 3.08 ± 0.75 (treatment: DMSO) and 2.88 ± 0.8 (treatment: MLN4924 1 uM, 8 h).

In the case of PAAPTPESFTVHFLPLNSAQTLHH [DNAAF3], the protein stability index is, setting by setting: (treatment: DMSO) 2.87 ± 0.22; (treatment: MLN4924 1 uM, 8 h) 3.02 ± 0.23.

PAEDPDDYDDGFSMKHTATARFQR [SMARCE1]: the protein stability index (treatment: DMSO) amounted to 4.81 ± 0.13 and the protein stability index (treatment: MLN4924 1 uM, 8 h) came to 4.89 ± 0.17.

Regarding PAPAPLVPQDPDLEEEEEEEDLVL [ZBTB22], the protein stability index runs as follows: (treatment: DMSO) 5.59 ± 0.33; (treatment: MLN4924 1 uM, 8 h) 5.69 ± 0.2.

For PAPERTMAGLSKEPNTLRAPRVRT [VENTX], the protein stability index (treatment: DMSO) worked out at 4.86 ± 0.29 and the protein stability index (treatment: MLN4924 1 uM, 8 h) was 4.85 ± 0.32.

On to PAPTATVPAPQPPVTKPLFPSAGQ [ZNF207], for which the protein stability index is, setting by setting: (treatment: DMSO) 4.82 ± 0.39; (treatment: MLN4924 1 uM, 8 h) 4.8 ± 0.18.

As for PASYTAPIMSGQGLAGFFASVAMI [SLC29A1], the protein stability index by setting is: (treatment: DMSO) 2.59 ± 0.58; (treatment: MLN4924 1 uM, 8 h) 2.44 ± 0.48.

Consider PCAGLNCQALDANLDANLAFASFT [TLE6], for which the protein stability index was found to be 2.98 ± 0.33 (treatment: DMSO) and 2.99 ± 0.28 (treatment: MLN4924 1 uM, 8 h).

Take PDDKLTLFCEVSVVQDSVNISGHT [SPOPL]: the protein stability index is 2.47 ± 0.52 (treatment: DMSO) and 2.81 ± 0.49 (treatment: MLN4924 1 uM, 8 h).

With PDTQENRRMFSSLFQFSNCSQGQQ [CCDC3], the protein stability index reads like this: (treatment: DMSO) 3.67 ± 0.19; (treatment: MLN4924 1 uM, 8 h) 3.51 ± 0.17.

As for PECGEIFAHSSNLLRHQRIHTGER [ZNF263], the protein stability index is 3.88 ± 0.24 (treatment: DMSO) and 3.91 ± 0.073 (treatment: MLN4924 1 uM, 8 h).

Regarding PEGARRGLGVLRALGSRGWEPFDW [FANCE], the protein stability index reads like this: (treatment: DMSO) 3.05 ± 0.34; (treatment: MLN4924 1 uM, 8 h) 2.98 ± 0.42.

PEIEKADDHLQQPLQNQKILKRTG [ZNF649] had a protein stability index (treatment: DMSO) of 5.3 ± 0.29 and a protein stability index (treatment: MLN4924 1 uM, 8 h) of 5.5 ± 0.24.

PEQSLKKTKTSEYPIIFVYYLRKG [SPANXN3]: the protein stability index by setting is: (treatment: DMSO) 2.75 ± 1.8; (treatment: MLN4924 1 uM, 8 h) 2.59 ± 0.37.

Take PERLHAIKEQLIQEGLLDRCVSFQ [HDAC6]: the protein stability index by setting is: (treatment: DMSO) 2.88 ± 0.11; (treatment: MLN4924 1 uM, 8 h) 3.18 ± 0.12.

Sequence PESVEASPVVVEKSNSYPHQLYTS [KMT2E] registered a protein stability index (treatment: DMSO) of 4.34 ± 0.32 and a protein stability index (treatment: MLN4924 1 uM, 8 h) of 4.44 ± 0.26.

PEVLDRESRDRPSCAPSASIPKLK [PWWP2B]: the protein stability index runs as follows: (treatment: DMSO) 5.04 ± 0.21; (treatment: MLN4924 1 uM, 8 h) 5.25 ± 0.15.

In the case of PGEEKFENLEGVPSVCSENIHPQV [ZNF263], the protein stability index came to 4.96 ± 0.23 (treatment: DMSO) and 4.96 ± 0.38 (treatment: MLN4924 1 uM, 8 h).

Take PGFDRGQFHKQIAVMRGQILNLTQ [PI4K2A]: the protein stability index came to 2.56 ± 0.21 (treatment: DMSO) and 2.56 ± 0.28 (treatment: MLN4924 1 uM, 8 h).

For PGFGCKAVRCASGRCTVRDFIHRH [SDE2], the protein stability index by setting is: (treatment: DMSO) 2.08 ± 0.43; (treatment: MLN4924 1 uM, 8 h) 2.14 ± 0.46.

Take PGKDYDADRQCQLTFGPDSRHCPQ [ADAMTS4]: the protein stability index turned out to be 4.68 ± 0.26 (treatment: DMSO) and 4.67 ± 0.24 (treatment: MLN4924 1 uM, 8 h).

Take PGRREGCDICAGKAGCPIVEEPLG [RPS21]: the protein stability index runs as follows: (treatment: DMSO) 4.09 ± 0.33; (treatment: MLN4924 1 uM, 8 h) 4.25 ± 0.072.

For the sequence PGSLLCTVAASDPDTGDNARLTYS [PCDHGC5], the protein stability index is, setting by setting: (treatment: DMSO) 4.12 ± 0.29; (treatment: MLN4924 1 uM, 8 h) 4 ± 0.14.

PGTLLKTSPSPERSLLLKYARTPT [TRIM14] displayed a protein stability index (treatment: DMSO) of 3.27 ± 0.22 and a protein stability index (treatment: MLN4924 1 uM, 8 h) of 3.15 ± 0.12.

Regarding PIEVVTEGLLNTYQELLGLSFEQM [NLN], the protein stability index amounted to 2.13 ± 0.37 (treatment: DMSO) and 2.29 ± 0.38 (treatment: MLN4924 1 uM, 8 h).

As to PKDIAKLVPKTHLMSESEWRNLGV [CKS1B], the protein stability index is 2.8 ± 0.32 (treatment: DMSO) and 2.85 ± 0.34 (treatment: MLN4924 1 uM, 8 h).

PKPSGLEPGPAAYGLKPLTPNSKY [KCTD13]: the protein stability index (treatment: DMSO) stood at 4.42 ± 0.23 and the protein stability index (treatment: MLN4924 1 uM, 8 h) is 4.22 ± 0.26.

For PLFSEDVVLKLFLSFSGSDVQNKL [SNX8], the protein stability index by setting is: (treatment: DMSO) 2.1 ± 0.45; (treatment: MLN4924 1 uM, 8 h) 2.31 ± 0.39.

For the sequence PLLLKEILKHTPKEHPDVQLLEDA [NET1], the protein stability index was 3.82 ± 0.41 (treatment: DMSO) and 4.06 ± 0.21 (treatment: MLN4924 1 uM, 8 h).

As to PLMQGPRTRPRKPIRCGEVLFAVG [KLHL20], the protein stability index by setting is: (treatment: DMSO) 2.23 ± 0.33; (treatment: MLN4924 1 uM, 8 h) 1.92 ± 0.5.

In the case of PLMVASAQSGERECHIVVLTDDDV [BTBD10], the protein stability index runs as follows: (treatment: DMSO) 3.71 ± 0.32; (treatment: MLN4924 1 uM, 8 h) 3.92 ± 0.15.

With PLPFPGPFPAGPLAVAGGPRKTAA [ESRRA], the protein stability index reads like this: (treatment: DMSO) 4.43 ± 0.17; (treatment: MLN4924 1 uM, 8 h) 4.25 ± 0.14.

Turning to PLPHPGAAPWPMAFPYQYPPPPHP [DVL3], the protein stability index is, setting by setting: (treatment: DMSO) 3.15 ± 0.28; (treatment: MLN4924 1 uM, 8 h) 3.41 ± 0.13.

For the sequence PLPQIPNLPFWVKEKANSLKNEIQ [SPATS1], the protein stability index is, setting by setting: (treatment: DMSO) 2.79 ± 0.45; (treatment: MLN4924 1 uM, 8 h) 3.4 ± 0.3.

As to PLQDFPNSISSDKEATVPCTEILT [MIA2], the protein stability index is 4.55 ± 0.24 (treatment: DMSO) and 4.54 ± 0.24 (treatment: MLN4924 1 uM, 8 h).

For PNAQYWSQFHSVRPQGPQLRQQQH [DNAJC4], the protein stability index was 3.62 ± 0.14 (treatment: DMSO) and 3.76 ± 0.29 (treatment: MLN4924 1 uM, 8 h).

On to PNCFRKDPDINMHPFFFALGKILS [FADS1], for which the protein stability index by setting is: (treatment: DMSO) 2.1 ± 0.51; (treatment: MLN4924 1 uM, 8 h) 2.33 ± 0.5.

Turning to PPELTASRQSFRMAMGNPSEFFVD [DVL3], the protein stability index worked out at 4.17 ± 0.21 (treatment: DMSO) and 3.83 ± 0.21 (treatment: MLN4924 1 uM, 8 h).

PPGPKGDQGDEGKEGRPGIPGLPG [SCARA5] came in with a protein stability index (treatment: DMSO) of 5.69 ± 0.15 and a protein stability index (treatment: MLN4924 1 uM, 8 h) of 5.36 ± 0.41.

As for PPPASQPVVKALFGASAAGGLSPV [CDC25A], the protein stability index was found to be 4.08 ± 0.14 (treatment: DMSO) and 4.17 ± 0.21 (treatment: MLN4924 1 uM, 8 h).
